In publication PMC4691284 one finds stoichiometry N data, which are given here for one substance.

The assay deals with Fer F-BAR domain (human) (UniProt P16591). Put plainly: AUC.

Fer F-BAR domain, sequence (P16591 1-264): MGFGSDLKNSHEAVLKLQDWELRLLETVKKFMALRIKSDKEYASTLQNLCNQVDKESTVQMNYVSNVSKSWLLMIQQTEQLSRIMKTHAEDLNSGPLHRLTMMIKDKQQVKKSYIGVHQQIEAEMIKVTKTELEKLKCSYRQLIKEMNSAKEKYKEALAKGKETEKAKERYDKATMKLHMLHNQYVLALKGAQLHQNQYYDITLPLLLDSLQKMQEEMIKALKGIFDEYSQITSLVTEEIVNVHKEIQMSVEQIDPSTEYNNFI

For the substance “Fer F-BAR domain (from UniProt P16591 1-259) (domain or fragment)”, the stoichiometry N is 2 dimers.
